Measurements taken from US20170296640A1 (IMMATICS BIOTECHNOLOGIES, published 2017).

Molecular target: T1, HLA-A*02:01 (peptide-receptive MHC class I monomer after UV cleavage of the UV-sensitive ligand) (human)
T1 construct: MHC monomers loaded by UV-ligand exchange and captured on streptavidin plates
Test: UV ligand-exchange ELISA; exchange yield grade (+ >=10%, ++ >=20%, +++ >=50%, ++++ >=75%)
Method in brief: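 Peptide–MHC complexes formed by UV-ligand exchange, cleaving a UV-sensitive peptide so the test peptide can bind. Exchange yield measured by ELISA: complexes captured on streptavidin-coated wells, diluted 100-fold, detected with HRP anti-β2m (1 h, 37 °C) and TMB at 450 nm, against refolded HLA-A*02:01/MLA-001 standards (15-500 ng/ml).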

Binder	peptide exchange yield	binding result
FLVEVSNDV [FLVEVSNDV (SEQ ID NO: 64)]	≥ 75%	–
ALLEGVKNV [ALLEGVKNV (SEQ ID NO: 43)]	50 to 75%	–
AQVALVNEV [AQVALVNEV (SEQ ID NO: 306)]	50 to 75%	–
KLYDEESLL [KLYDEESLL (SEQ ID NO: 31)]	≥ 75%	–
GLQDLLFSL [GLQDLLFSL (SEQ ID NO: 56)]	50 to 75%	–
IVLERNPEL [IVLERNPEL (SEQ ID NO: 300)]	50 to 75%	–
FILEPLYKI [FILEPLYKI (SEQ ID NO: 296)]	≥ 75%	–
KLINSQISL [KLINSQISL (SEQ ID NO: 292)]	50 to 75%	–
ILQNGLETL [ILQNGLETL (SEQ ID NO: 297)]	50 to 75%	–
AMLAQQMQL [AMLAQQMQL (SEQ ID NO: 305)]	50 to 75%	–
KILDEDLYI [KILDEDLYI (SEQ ID NO: 48)]	50 to 75%	–
LLWEDGVTEA [LLWEDGVTEA (SEQ ID NO: 34)]	50 to 75%	–
FVWEASHYL [FVWEASHYL (SEQ ID NO: 303)]	≥ 75%	–
ILASIFETV [ILASIFETV (SEQ ID NO: 41)]	≥ 75%	–
NLLGMIFSM [NLLGMIFSM (SEQ ID NO: 7)]	≥ 75%	–
KLAPIPVEL [KLAPIPVEL (SEQ ID NO: 66)]	≥ 75%	–
KLYGPEGLELV [KLYGPEGLELV (SEQ ID NO: 294)]	≥ 75%	–
ALIEEAYGL [ALIEEAYGL (SEQ ID NO: 63)]	50 to 75%	–
LTIDTQYYL [LTIDTQYYL (SEQ ID NO: 3)]	50 to 75%	–
ALTDVILCV [ALTDVILCV (SEQ ID NO: 298)]	≥ 75%	–
FLVEEIFQT [FLVEEIFQT (SEQ ID NO: 46)]	50 to 75%	–

Binder	peptide exchange yield	binding result
LIDDKGTIKL [LIDDKGTIKL (SEQ ID NO: 314)]	20 to 50%	–
LQIGDFVSV [LQIGDFVSV (SEQ ID NO: 57)]	≥ 75%	–
FIIEEQSFL [FIIEEQSFL (SEQ ID NO: 44)]	50 to 75%	–
LQFDGIHVV [LQFDGIHVV (SEQ ID NO: 301)]	50 to 75%	–
ALAPYLDLL [ALAPYLDLL (SEQ ID NO: 62)]	≥ 75%	–
LLANIVPIAMLV [LLANIVPIAMLV (SEQ ID NO: 33)]	≥ 75%	–
KIIDTAGLSEA [KIIDTAGLSEA (SEQ ID NO: 291)]	50 to 75%	–
FILDDSALYL [FILDDSALYL (SEQ ID NO: 45)]	50 to 75%	–
ILVEVDLVQA [ILVEVDLVQA (SEQ ID NO: 55)]	≥ 75%	–
IASPVIAAV [IASPVIAAV (SEQ ID NO: 290)]	50 to 75%	–
GLLPKLTAL [GLLPKLTAL (SEQ ID NO: 47)]	50 to 75%	–
FLLPVAVKL [FLLPVAVKL (SEQ ID NO: 307)]	50 to 75%	–
FLNSVIVDL [FLNSVIVDL (SEQ ID NO: 40)]	≥ 75%	–
NLTDVSPDL [NLTDVSPDL (SEQ ID NO: 65)]	50 to 75%	–
ALIRLDDLFL [ALIRLDDLFL (SEQ ID NO: 304)]	50 to 75%	–
LLLDGLIYL [LLLDGLIYL (SEQ ID NO: 50)]	50 to 75%	–
ILSTLDVEL [ILSTLDVEL (SEQ ID NO: 30)]	50 to 75%	–
GLAMVEAISYV [GLAMVEAISYV (SEQ ID NO: 293)]	≥ 75%	–
LLATVNVAL [LLATVNVAL (SEQ ID NO: 67)]	≥ 75%	–
FLREYFERL [FLREYFERL (SEQ ID NO: 53)]	≥ 75%	–

Next, values leading:

peptide exchange yield	binding result	Binder
20 to 50%	–	TLQEETAVYL [TLQEETAVYL (SEQ ID NO: 72)]
50 to 75%	–	VLNEDELPSV [VLNEDELPSV (SEQ ID NO: 32)]
50 to 75%	–	VLGNALEGV [VLGNALEGV (SEQ ID NO: 37)]
50 to 75%	–	SLSFVSPSL [SLSFVSPSL (SEQ ID NO: 309)]
≥ 75%	–	TILGDPQILL [TILGDPQILL (SEQ ID NO: 49)]
≥ 75%	–	SLLGNSPVL [SLLGNSPVL (SEQ ID NO: 51)]
≥ 75%	–	VLLEDVDAAFL [VLLEDVDAAFL (SEQ ID NO: 52)]
≥ 75%	–	SLLAANNLL [SLLAANNLL (SEQ ID NO: 289)]
50 to 75%	–	SLSSERYYL [SLSSERYYL (SEQ ID NO: 35)]
50 to 75%	–	RLLEEEGVSL [RLLEEEGVSL (SEQ ID NO: 299)]
50 to 75%	–	SLAELDEKISA [SLAELDEKISA (SEQ ID NO: 302)]
≥ 75%	–	SLLNKDLSL [SLLNKDLSL (SEQ ID NO: 61)]
50 to 75%	–	TLITLPLLFL [TLITLPLLFL (SEQ ID NO: 6)]
50 to 75%	–	QLLPQGIVPAL [QLLPQGIVPAL (SEQ ID NO: 39)]
50 to 75%	–	VILDIPLLFET [VILDIPLLFET (SEQ ID NO: 36)]
50 to 75%	–	VLQGLTFTL [VLQGLTFTL (SEQ ID NO: 5)]

peptide exchange yield	binding result	Binder
≥ 75%	–	YLQDLVERA [YLQDLVERA (SEQ ID NO: 42)]
≥ 75%	–	VLIEILQKA [VLIEILQKA (SEQ ID NO: 70)]
50 to 75%	–	RLHREVAQV [RLHREVAQV (SEQ ID NO: 59)]
≥ 75%	–	TLLAFPLLL [TLLAFPLLL (SEQ ID NO: 69)]
50 to 75%	–	SLLDQIPEM [SLLDQIPEM (SEQ ID NO: 308)]
50 to 75%	–	SLLIDVITV [SLLIDVITV (SEQ ID NO: 60)]
20 to 50%	–	YLTAEILELAGN [YLTAEILELAGN (SEQ ID NO: 38)]
50 to 75%	–	SLAAVSQQL [SLAAVSQQL (SEQ ID NO: 295)]
50 to 75%	–	QLAPFLPQL [QLAPFLPQL (SEQ ID NO: 58)]
≥ 75%	–	VLLDYVGNVQL [VLLDYVGNVQL (SEQ ID NO: 71)]
50 to 75%	–	VMAEAPPGV [VMAEAPPGV (SEQ ID NO: 310)]
50 to 75%	–	YLHRQVAAV [YLHRQVAAV (SEQ ID NO: 311)]
20 to 50%	–	TLLGFFLAKV [TLLGFFLAKV (SEQ ID NO: 4)]
–	binds	DIFDAMFSV [DIFDAMFSV (SEQ ID NO: 54)]
≥ 75%	–	QIAAFLFTV [QIAAFLFTV (SEQ ID NO: 68)]
